Earlier results as cited in paper PMC3218432.

Target: Asp85 (UniProt position 98, WARYADWLFTT)

For “Bacteriorhodopsin (Halobacterium salinarum (not stated in the article; described as archaeal))”, the pKa is listed as 2.3.
